The source of these data is article PMC6426935.

In experiment [1] the target is recombinant Der f 21 with the His-tag cleaved (Dermatophagoides farinae) (UniProt B2GM84). In words: static light scattering; crDer f 21 at 0.25, 1.00 and 1.50 mg/mL.
Experiment [2] deals with recombinant Der f 21 with N-terminal 6x-His-tag (Dermatophagoides farinae) (UniProt B2GM84). Description: SEC-MALS; Superdex S75 increase, 20 mM Tris pH 7.9, 50 mM NaCl; 100 uL loaded at 5 mg/mL.

Turning to “recombinant Der f 21 with the His-tag cleaved (from UniProt B2GM84 25-136) (natural protein)”, the stoichiometry N in experiment [1] came out at 2.
Consider “recombinant Der f 21 with N-terminal 6x-His-tag (from UniProt B2GM84 25-136) (natural protein)”, for which, in experiment [2], the stoichiometry N is 2.

The stoichiometry N is the number of molecules, sites or subunits per partner or assembly.
